B1: Nanobody-80 (VHH)
VHH: QVQLQESGGGLVQAGGSLRLSCAASGSIFSINTMGWYRQAPGKQRELVAAIHSGGSTNYANSVKGRFTISRDNAANTVYLQMNSLKPEDTAVYYCNVKDYGAVLYEYDYWGQGTQVTVSS

Assays:
β2AR-T4L = format: binding, human
[1] = biological target: β2 adrenergic receptor truncated at position 365, reconstituted in HDL particles (Homo sapiens (Human)., UniProt P07550); test: radioligand binding
mBB-β2AR/HDL = mBB-β2AR/HDL (Homo sapiens, UniProt P07550); test: Bimane fluorescence spectroscopy on mBB-β2AR reconstituted in HDL particles; format: biochemical

Molecule	Ki (β2AR-T4L; read-out: Ki in the presence of Nb80, β2AR-T4L/HDL, Nb80 1 μM, 0.6 nM [3H]-DHA)	increase of affinity in the presence of Nb80 (β2AR-T4L; β2AR-T4L/HDL with Nb80 versus without)	binding result [1]	effect on bimane fluorescence of β2AR bound to inverse agonist ICI-118,551 (mBB-β2AR/HDL; 300 nM Nb80, 1 μM ICI)	effect on bimane fluorescence in the presence of isoproterenol (mBB-β2AR/HDL; 300 nM Nb80, 10 μM isoproterenol)
isoproterenol	0.56 nM	60 fold			
B1			binds	not observed	increased

Source: publication PMC3058308 (Nature, 2011)
